Data: FireProtDB (doi:10.1021/bi001900v)
Values joined by “and” are separate entries in the source; they are usually repeats but may differ in a detail not shown here. Identical values can stand only once.

Conditions: Dickeya chrysanthemi, reversible: yes, whole UniProt chain shown; for Tm / unfolding enthalpy (calorimetric) / unfolding enthalpy (van 't Hoff): Thermal, DSC; for denaturant m value / denaturant midpoint (higher = more stable) / unfolding free energy: 25 °C, GdnHCl
[1] = pH 5, CD, Sodium phosphate 0.1 M, sodium chloride 150 mM
[2] = pH 5, CD, Sodium phosphate buffer, NaCl
[3] = pH 5, Fluorescence, Sodium phosphate 0.1 M, sodium chloride 150 mM
[4] = pH 5, fluorescence, Sodium phosphate buffer, NaCl
[5] = pH 7, CD, Sodium phosphate 0.1 M, sodium chloride 150 mM
[6] = pH 7, CD, Sodium phosphate buffer, NaCl
[7] = pH 7, Fluorescence, Sodium phosphate 0.1 M, sodium chloride 150 mM

B1: Pectate lyase C wild type, P11073 (protein)
chain: MKSLITPITAGLLLALSQPLLAATDTGGYAATAGGNVTGAVSKTATSMQDIVNIIDAARLDANGKKVKGGAYPLVITYTGNEDSLINAAAANICGQWSKDPRGVEIKEFTKGITIIGANGSSANFGIWIKKSSDVVVQNMRIGYLPGGAKDGDMIRVDDSPNVWVDHNELFAANHECDGTPDNDTTFESAVDIKGASNTVTVSYNYIHGVKKVGLDGSSSSDTGRNITYHHNYYNDVNARLPLQRGGLVHAYNNLYTNITGSGLNVRQNGQALIENNWFEKAINPVTSRYDGKNFGTWVLKGNNITKPADFSTYSITWTADTKPYVNADSWTSTGTFPTVAYNYSPVSAQCVKDKLPGYAGVGKNLATLTSTACK
Tm (pH 4): 56.5 °C | unfolding enthalpy (calorimetric) (pH 4): 256 kcal/mol | unfolding enthalpy (van 't Hoff) (pH 4): 174 kcal/mol | denaturant m value [1]: 15.7 kcal/mol/M | denaturant midpoint (higher = more stable) [1]: 0.95 M | unfolding free energy [1]: 14.9 kcal/mol | denaturant m value [2]: 12.5 kcal/mol/M and 15.7 kcal/mol/M | denaturant midpoint (higher = more stable) [2]: 0.97 M | unfolding free energy [2]: 14.9 kcal/mol | denaturant m value [3]: 14.5 kcal/mol/M | denaturant midpoint (higher = more stable) [3]: 0.96 M | unfolding free energy [3]: 14 kcal/mol | denaturant m value [4]: 14.5 kcal/mol/M | denaturant midpoint (higher = more stable) [4]: 0.96 M | unfolding free energy [4]: 14 kcal/mol | Tm (pH 5): 59.8 °C | unfolding enthalpy (calorimetric) (pH 5): 270 kcal/mol | unfolding enthalpy (van 't Hoff) (pH 5): 181 kcal/mol | Tm (pH 6): 56.5 °C | unfolding enthalpy (calorimetric) (pH 6): 255 kcal/mol | unfolding enthalpy (van 't Hoff) (pH 6): 203 kcal/mol | denaturant m value [5]: 12.2 kcal/mol/M and 11.8 kcal/mol/M | denaturant midpoint (higher = more stable) [5]: 0.99 M and 0.98 M | unfolding free energy [5]: 12.1 kcal/mol and 11.6 kcal/mol | denaturant m value [6]: 12.2 kcal/mol/M and 11.8 kcal/mol/M | denaturant midpoint (higher = more stable) [6]: 0.99 M and 0.98 M | unfolding free energy [6]: 12.1 kcal/mol and 11.6 kcal/mol | denaturant m value [7]: 13 kcal/mol/M | denaturant midpoint (higher = more stable) [7]: 1 M | unfolding free energy [7]: 13 kcal/mol | Tm (pH 7): 51.2 °C | unfolding enthalpy (calorimetric) (pH 7): 240 kcal/mol | unfolding enthalpy (van 't Hoff) (pH 7): 219 kcal/mol | Tm (pH 8): 46.5 °C | unfolding enthalpy (calorimetric) (pH 8): 235 kcal/mol | unfolding enthalpy (van 't Hoff) (pH 8): 201 kcal/mol
